Substitutions are numbered along the chain they refer to. In names and notes the source's numbering stands.
B1: HER3MS00076 (VHH)
VHH: EVQLVESGGGLVQPGGSLRLSCAASGSIGGLNAMAWYRQAPGKERELVAGIFGVGSTRYADSVKGRFTISRDISKNTVFLQMNSLRSEDTAVYYCRMSSVTRGSSDYWGQGTLVTVSS
notes: 17B05 + A74S, N83R, Q108L; also called HER3MS0076; 17B05 basic variant
B2: HER3MS00085 (VHH)
VHH: B1 VHH with S87A
notes: 17B05 basic + S84A; also called HER3MS0085
B3: HER3MS00080 (VHH)
VHH: B1 VHH with I73N, F79Y
notes: 17B05 basic + I73N + F79Y; also called HER3MS0080
B4: HER3MS00084 (VHH)
VHH: B1 VHH with S87P
notes: 17B05 basic + S84P; also called HER3MS0084
B5: HER3MS00083 (VHH)
VHH: B1 VHH with I73N, F79Y, R96A
notes: also called HER3MS0083

The binders below were run against T1, human HER3-Fc (R&D Systems, 348-RB) (human, UniProt P21860 20-643) (assay: HRG competition alphascreen).
T1 construct: Bought; also called hHER3-Fc; Fc-HER3; Fc part of the bought chimera not given, not described
B1 showed an IC50 of 788 pM. B2 gave an IC50 of 760 to 940 pM. B3 was tested, and the IC50 was 731 pM. With B4 the IC50 was 940 pM. Binder B5 has an IC50 of 4950 pM.

The binders below were run against T2, hHER3 ECD (human HER3 extracellular domain) (human, UniProt P21860 20-643) (assay: SPR off rate on HER3-ECD).
T2 construct: also called recombinant HER3-ECD
Work on B1 yielded a koff of 0.00017 s⁻¹. B2 gave a koff of 0.00019 s⁻¹. In the case of B3, the koff is reported as 0.00018 s⁻¹. Work on B4 yielded a koff of 0.00018 s⁻¹. Work on B5 yielded a koff of 0.00084 s⁻¹.
